Experimental findings from paper PMC7968997 are described below.

The target of data set [1] is T1, RBM45 RRM1-2 WT (Homo sapiens, UniProt Q8IUH3 23-202).
T1 sequence: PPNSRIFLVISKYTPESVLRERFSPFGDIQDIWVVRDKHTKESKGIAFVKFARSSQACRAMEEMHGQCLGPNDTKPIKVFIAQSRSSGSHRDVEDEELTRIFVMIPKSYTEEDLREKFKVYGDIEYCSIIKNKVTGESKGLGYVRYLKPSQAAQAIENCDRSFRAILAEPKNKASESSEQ
The experiment in a line: gel filtration, SEC-MALS.

In data set [2] the target is T1, RBM45 RRM1-2 WT. The experiment in a line: gel filtration, SEC-MALS. This is another data set of the same source.
Data set [3] concerns the target T1, RBM45 RRM1-2 WT. Briefly: gel filtration, SEC-MALS. This is another data set of the same source.
Data set [4] has as its target T1, RBM45 RRM1-2 WT. Briefly: gel filtration, SEC-MALS. This is another data set of the same source.
Data set [5] has as its target T1, RBM45 RRM1-2 WT. The experiment in a line: gel filtration.
Data set [6] addresses T1, RBM45 RRM1-2 WT. Briefly: gel filtration, SEC-MALS. This is another data set of the same source.
For data set [7], the target named is T1, RBM45 RRM1-2 WT. Briefly: gel filtration, SEC-MALS. This is another data set of the same source.
Data set [8] addresses T1, RBM45 RRM1-2 WT. The experiment in a line: crystal structure.
Data set [9] concerns the target T2, RBM45 RRM1-2 F29A/F70A (RRM2 analog) (Homo sapiens, UniProt Q8IUH3 23-202, F29A;F70A).
T2 sequence: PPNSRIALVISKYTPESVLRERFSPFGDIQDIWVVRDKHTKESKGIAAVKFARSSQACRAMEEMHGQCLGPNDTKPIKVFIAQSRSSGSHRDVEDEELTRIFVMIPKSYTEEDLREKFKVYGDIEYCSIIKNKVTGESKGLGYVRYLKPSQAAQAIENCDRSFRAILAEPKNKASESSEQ
Briefly: fluorescence polarization.

The target in data set [10] is T1, RBM45 RRM1-2 WT. The experiment in a line: fluorescence polarization.
Data set [11] deals with T3, RBM45 RRM1-2 F124A/Y165A (RRM1 analog) (Homo sapiens, UniProt Q8IUH3 23-202, F124A;Y165A).
T3 sequence: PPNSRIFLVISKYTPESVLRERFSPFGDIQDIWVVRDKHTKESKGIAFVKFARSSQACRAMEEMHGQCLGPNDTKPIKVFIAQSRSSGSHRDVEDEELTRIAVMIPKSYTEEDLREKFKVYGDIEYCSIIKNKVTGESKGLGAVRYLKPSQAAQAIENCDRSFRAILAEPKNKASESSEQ
The experiment in a line: fluorescence polarization.

Data set [12] addresses T1, RBM45 RRM1-2 WT. Briefly: gel filtration, SEC-MALS. The source holds these as a separate data set.
Data set [13] addresses T1, RBM45 RRM1-2 WT. The experiment in a line: fluorescence polarization. The source holds these as a separate data set.
Data set [14] addresses T2, RBM45 RRM1-2 F29A/F70A (RRM2 analog). Briefly: fluorescence polarization. The source holds these as a separate data set.
In data set [15] the target is T3, RBM45 RRM1-2 F124A/Y165A (RRM1 analog). Briefly: fluorescence polarization. The source holds these as a separate data set.
Data set [16] has as its target T1, RBM45 RRM1-2 WT. The experiment in a line: gel filtration, SEC-MALS. The source holds these as a separate data set.

On to CGACGGUUUUUUGGACGC (ssRNA) [18-mer 2-GAC RNA], for which the binding result with RBM45 RRM1-2 WT [1] was “binds”.

Take CGACGGUUUUUUUUUUUUUUGGACGC (ssRNA) [26-mer 2-GAC RNA]: the binding result with RBM45 RRM1-2 WT [2] is given as “binds”.

For the molecule CGACGGGGACGC (ssRNA) [12-mer 2-GAC RNA], in the data set with RBM45 RRM1-2 WT [3], the binding result is listed as “binds”.

With CGACGGUUUUUUUUUUGGACGC (ssRNA) [22-mer 2-GAC RNA], the binding result in the data set with RBM45 RRM1-2 WT [4] was “binds”.

Take CGACGACGC (ssRNA) [9-mer 2-GAC RNA]: in the data set with RBM45 RRM1-2 WT [5], the binding result is “binds”.

Take CGACGGUUUUUU (ssRNA) [12-mer GAC-polyU RNA]: in the data set with RBM45 RRM1-2 WT [6], the binding result is listed as “binds”.

As for CGACGGUUGGACGC (ssRNA) [14-mer 2-GAC RNA], in the data set with RBM45 RRM1-2 WT [7], the binding result is “binds”.

Regarding CGACGGUUUUGGACGC (ssRNA) [16-mer 2-GAC RNA], in the data set with RBM45 RRM1-2 WT [7], the binding result is listed as “binds”.

Consider CGACGGGACGC (ssDNA) [11-nt ssDNA], for which the binding result in the data set with RBM45 RRM1-2 WT [8] is “binds”.

On to GGACGG (ssRNA, m6A at position 3) [GG(m6A)CGG RNA], for which the binding result (in data set [9]; in the data set with RBM45 RRM1-2 WT [10]; in [11]) was “binds” throughout.

CGACGGGACGC (ssRNA) [11-mer 2-GAC RNA]: the binding result with RBM45 RRM1-2 WT [12] was “binds”.

As for UUUUUU (ssRNA) [polyU 6-mer RNA], in the data set with RBM45 RRM1-2 WT [13], the Kd came to 57.2 ± 10.2 µM.

With GGACGG (ssDNA) [GGACGG ssDNA], the Kd came to 2310 ± 190 nM in [14], 0.805 ± 0.108 µM in the data set with RBM45 RRM1-2 WT [13] and 1210 ± 90 nM in [15].

For CGACGGUUUUUUUUGGACGC (ssRNA) [20-mer 2-GAC RNA], in the data set with RBM45 RRM1-2 WT [16], the binding result is listed as “binds”.

As for CGACGGACGC (ssRNA) [10-mer 2-GAC RNA], the binding result in the data set with RBM45 RRM1-2 WT [5] is listed as “binds”.
